Source: patent US6841359 (GENERAL HOSPITAL, dated 2005)
Where no end group is shown, it is not given here. The star is where a group is joined. puromycin = COc1ccc(C[C@H](N*)C(=O)N[C@H]2[C@@H](O)[C@H](n3cnc4c(N(C)C)ncnc43)O[C@@H]2CO)cc1; DNA oligonucleotide = not defined here

B1: Non-selected peptide with two HPQ motifs spaced by 19 residues (peptide)
peptide: MDEAHPQAGPVDQADARLVQQGALQHHPQGDRMMSGGCKLGTGY-{puromycin-DNA oligonucleotide}
modifications: reading uncertain; also: C-terminus joined through puromycin to a short DNA oligonucleotide (DNA-tagged peptide), 35S-methionine label
notes: also called non-selected clone; control peptide
B2: SB6 (peptide)
peptide: MDEKTHWLNNFEELLARLDGLREGEDHPLVLRHHPQGDGLLDQPLGRHRALDGEVREGDRPLDQGGEEDLGALVDDDGEVLDGLVHVGVHVHDPLVCGCHHH
modifications: C-terminus joined through puromycin to a short DNA oligonucleotide (DNA-tagged peptide); 35S-methionine label
notes: also called peptide SB6
B3: SB7 (peptide)
peptide: MDEKTHWFGTLNSFPTHWMSAVGNGKIDCSFNMNLSLNHWLSSGHPDGALDDQLHPQGDALVGRDDGVVQALRLEGQHQHRRLAQRRADRHRQLVWRLPPS
modifications: C-terminus joined through puromycin to a short DNA oligonucleotide (DNA-tagged peptide); 35S-methionine label
notes: also called peptide SB7
B4: SB8 (peptide)
peptide: MDEKTHCTIELNFSFTHWKLHHHPQGDALLDDGVRPHHPLADEGGGLDQGLGHRRGVVAERLARRDPEVLEGLVERHRGLVPRLRHGGERHAEPLVWRLPPS
modifications: C-terminus joined through puromycin to a short DNA oligonucleotide (DNA-tagged peptide); 35S-methionine label
notes: also called peptide SB8
B5: SB1 (peptide)
peptide: MDEKTHCTISMNGAVPLVPHHHPQGDPLRLLHRPQPALLVRHPQGDLVALVEHHEGVDRGLVALPELHAEELGEPVGDLVQGPVEQVQGVVDALVWRLPPS
modifications: C-terminus joined through puromycin to a short DNA oligonucleotide (DNA-tagged peptide); 35S-methionine label
notes: also called peptide SB1; clone SB1
B6: SB2 (peptide)
peptide: MDEKTHCFHPGDHLVRLVEELQALAEGLQRQGGRQPHRLPRRRPHHLQLLLDEAHPQAGPLRERAHQVDGRLLLQHHPQGDRLLQQPQDHPLELVWRLPPS
modifications: C-terminus joined through puromycin to a short DNA oligonucleotide (DNA-tagged peptide); 35S-methionine label
notes: also called peptide SB2; clone SB2
B7: SB3 (peptide)
peptide: MTRRPTASSSSCVRHLLLRQGEHGHQALEDRDKARHVRLVEGDVEVLGGLDRLARARHEALHPQAGLVHLPLHGGDLGGHLRLVLEAHPQGDRLGLAVHHH
modifications: C-terminus joined through puromycin to a short DNA oligonucleotide (DNA-tagged peptide); 35S-methionine label
notes: also called peptide SB3
B8: SB4 (peptide)
peptide: MDEKTHWGISTWRGEPLLHHPQAGRLPLDRRRARHRRILGAEPGGVDHGLRLELLDDHRPLVPDHHPQRGPLQRGDLPQVVPLVRLRHAHVLGLGLAAATIT
modifications: C-terminus joined through puromycin to a short DNA oligonucleotide (DNA-tagged peptide); 35S-methionine label
notes: also called peptide SB4
B9: SB5 (peptide)
peptide: MDEKTHWVNVYHPQGDLLVRGHGHDVEALHDQGLHQLDLLVGPPPEVVRALRGEVLGGLRRLVPLDHPQGEALDQARQRPQHLLELHHRALPPALVWRLPPS
modifications: C-terminus joined through puromycin to a short DNA oligonucleotide (DNA-tagged peptide); 35S-methionine label
notes: also called peptide SB5
B10: SB19 C-terminal truncation construct C2 (peptide)
peptide: MDEKTTGWRGGHVVEGLAGELEQLRARLEHHPQGQREPLVQEVEDVDEGLVQDLHGVVAGLLDPVEMMSGGCKLG
modifications: C-terminus joined through puromycin to a short DNA oligonucleotide (DNA-tagged peptide); 35S-methionine label
B11: SB19 C-terminal truncation construct C3 (peptide)
peptide: MDEKTTGWRGGHVVEGLAGELEQLRARLEHHPQGQREPLVQEVEDVDEGLVQMMSGGCKLG-{puromycin-DNA oligonucleotide}
modifications: reading uncertain; also: 35S-methionine label
B12: N1 (peptide)
peptide: MDGHVVEGLAGELEQLRARLEHHPQGQREPMMSGGCKLG
notes: One member of the group m27; Assayed as a DNA-tagged peptide
B13: N2 (peptide)
peptide: MDEGLAGELEQLRARLEHHPQGQREPLVQEVEDVDEGLVQDLHGVVAGLLDPVEKLLTDWFKKFKNVSKDCKMTFYLEMYDWSGGCKLG
notes: as for B12
B14: SB19 C-terminal truncation construct C1 (peptide)
peptide: MDEKTTGWRGGHVVEGLAGELEQLRARLEHHPQGQREPLVQEVEDVDEGLVQDLHGVVAGLLDPVEKLLTDWFKKFKNVSMMSGGCKLG
modifications: C-terminus joined through puromycin to a short DNA oligonucleotide (DNA-tagged peptide); 35S-methionine label

Target: T1, streptavidin (UniProt P22629 37-163, limits assumed)
T1 construct: The same protein was used free (EMSA, Biacore, SBIA) and immobilized on a matrix or plate; also called immobilized streptavidin; Ultralink immobilized streptavidin plus
Experiment: streptavidin column-binding assay, 35S DNA-tagged peptide on immobilized streptavidin, biotin elution
Method: (§1) The resulting purified DNA-tagged peptides (DTP) were analyzed in a streptavidin column-binding assay, in which ~500 pM ^35S-labeled DTP were mixed with 50 µL of the streptavidin matrix in streptavidin-binding buffer, in a total volume of 300 µL, and incubated for 10 minutes at room temperature with agitation. Then, the contents were loaded onto a chromatography column. The column was drained and washed with 80 column volumes of streptavidin-binding buffer, and then eluted with three consecutive aliquots (3 column volumes each) of streptavidin-binding buffer plus 2 mM biotin over a 15 minute period. All fractions (flow-through, washes, elutions, and irreversibly bound counts) were analyzed by scintillation counting to determine the fraction of DTP that bound streptavidin and eluted with biotin (Table 1).

T1 sequence (P22629 37-163 limits assumed): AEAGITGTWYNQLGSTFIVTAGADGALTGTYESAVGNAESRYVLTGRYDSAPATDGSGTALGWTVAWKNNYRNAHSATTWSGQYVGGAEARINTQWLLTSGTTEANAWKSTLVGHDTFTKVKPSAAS

Binder	% binding and eluting
B1	0.16%
B2	49%
B3	28%
B4	27%
B5	86%
B6	48%
B7	20%
B8	49%
B9	72%

Target: T1, streptavidin
Experiment: streptavidin column-binding assay, M1 (HPQ to HGA) compared to C4
Method: as §1

Binder	fold reduction of activity against construct C4
MDEKTTGWRGGHVVEGLAGELEQLRARLEHHGAGQREPMMSGGCKLG-{puromycin-DNA oligonucleotide} (reading uncertain; also: 35S-methionine label, also called construct M1) [SB19 point mutated peptide M1]	~1000 fold

Target: T1, streptavidin
Experiment: EMSA, DNA-tagged peptide with free streptavidin; SD 0.91, n=8
Method: (§2) The dissociation constants of the selected peptides for streptavidin were measuring using an electrophoretic mobility shift assay (EMSA). In this assay, DTP's were incubated with varying amounts of pure streptavidin (Pierce Immunopure Streptavidin, Rockford, Ill.) in streptavidin-binding buffer plus 5% glycerol to increase the density of the solution so that it could collect at the bottom of the gel well. After incubating at room temperature for 20 minutes, the reactions mixtures were moved into the cold room, where they remained for 10 minutes before being carefully loaded onto a 10% polyacrylamide:bisacrylamide (37.5:1, National Diagnostics, Atlanta, Ga.) gel (thickness 0.7 mm, height 16 cm, width 18 cm) containing 2×TBE, 0.1% Triton X-100 and 5% glycerol. The gel, which had been pre-run for 30 minutes at 13 watts, and the running buffer were pre-cooled to 4° C. Then, the gel was run in the cold room at 13 watts, which increased the temperature of the gel to about 20° C. The gel was run for 45 to 120 minutes, depending on the mobility of the particular DTP. Then, the gel was fixed in 10% acetic acid and 10% methanol for 15 minutes, transferred to electrophoresis paper (Ahlstrom, Mt. Holly Springs, Pa.), dried, and analyzed using a PhosphorImager (Molecular Dynamics, Sunnyvale, Calif.).

Binder	Kd
B6	4.8 nM

Target: T1, streptavidin
Experiment: streptavidin column-binding assay: 35S-labeled DNA-tagged peptide bound to immobilized streptavidin and eluted with biotin
Method: as §1

Binder	% binding
B10	88%
B11	89%
MDEKTTGWRGGHVVEGLAGELEQLRARLEHHGAGQREPMMSGGCKLG-{puromycin-DNA oligonucleotide} (reading uncertain; also: 35S-methionine label, also called construct M1) [SB19 point mutated peptide M1]	0.065%
B12	69%
B13	30%
B14	87%

Target: T1, streptavidin
Experiment: EMSA, DNA-tagged peptide with free streptavidin; SD 22, n=6
Method: as §2

Binder	Kd
B9	110 nM

Target: T1, streptavidin
Experiment: EMSA, DNA-tagged peptide with free streptavidin; SD 5.7, n=4
Method: as §2

Binder	Kd
B5	50 nM
